{"source": "paper doi:10.1101/2021.06.08.447555", "about": "(bioRxiv, 2021)", "proteins": {"B1": {"name": "His6-eVP40 (Ebola virus matrix protein VP40) (natural protein)", "chain": "MRRVILPTAPPEYMEAIYPVRSNSTIARGGNSNTGFLTPESVNGDTPSNPLRPIADDTIDHASHTPGSVSSAFILEAMVNVISGPKVLMKQIPIWLPLGVADQKTYSFDSTTAAIMLASYTITHFGKATNPLVRVNRLGPGIPDHPLRLLRIGNQAFLQEFVLPPVQLPQYFTFDLTALKLITQPLPAATWTDDTPTGSNGALRPGISFHPKLRPILLPNKSGKKGNSADLTSPEKIQAIMTSLQDFKIVPIDPTKNIMGIEVPETLVHKLTGKKVTSKNGQPIIPVLLPKYIGLDPVAPGDLTMVITQDCDTCHSPASLPAVIEK"}}, "target": "the molecule itself", "experiment": "SEC", "data": [{"protein": "B1", "values": [{"measurement": "stoichiometry N", "value": 2}]}]}
